# Test system: homoserine dehydrogenase (Hom)
# Assay: Measurement of activity of homoserine dehydrogenase in crude extracts, desensitization by L-threonine
# Type: biochemical, Corynebacterium glutamicum
# Conditions: 10 mM L-threonine, unlike the wild-type Hom
# Description: The activity of the enzyme Hom was measured in the prepared strains. The wild-type strain ATCC13032 in a control group and CTR-T285I, CTR-R398Q, CTR-G378W, and CTR-G378S prepared in Example 4 were inoculated into 25 mL of the seed medium, and then cultured until reaching the late log phase. The cells were recovered by centrifugation, washed twice with a 0.1 M potassium phosphate buffer (pH 7.6), and finally suspended in 2 mL of the same buffer containing glycerol at a concentration of 30%. The cell suspension was physically disrupted by a conventional glass bead vortexing method for 10 minutes, and then the supernatant was recovered through two centrifugations (13,000 rpm, 4° C., 30 minutes) and used as a crude extract for measuring the activity of the enzyme Hom. For the measurement of the activity of Hom, a coenzyme solution (0.1 mL) was added to a reaction solution for measuring the enzyme activity (a potassium phosphate (pH 7.0) buffer, 25 mM NADPH, 5 mM aspartate semi-aldehyde), and then reacted at 30° C. The Hom activity U was defined as the number of NADPH μmol consumed per minute according to the presence of L-threonine (0 mM, 10 mM), and the results of the enzyme activity are shown in Table 2 below.
row,Molecule,inhibition of Hom activity by L-threonine (desensitization)
1,"T285I: Hom (SEQ ID NO: 10), threonine at position 285 mutated to isoleucine (protein, Hom (KFCC10881-1)) MTSASAPSFNPGKGPGSAVGIALLGFGTVGTEVMRLMTEYGDELAHRIGGPLEVRGIAVSDISKPREGVAPELLTEDAFALIEREDVDIVVEVIGGIEYPREVVLAALKAGKSVVTANKALVAAHSAELADAAEAANVDLYFEAAVAGAIPVVGPLRRSLAGDQIQSVMGIVNGTTNFILDAMDSTGADYADSLAEATRLGYAEADPTADVEGHDAASKAAILASIAFHTRVTADDVYCEGISNISAADIEAAQQAGHTIKLLAICEKFTNKEGKSAISARVHPILLPVSHPLASVNKSFNAIFVEAEAAGRLMFYGNGAGGAPTASAVLGDVVGAARNKVHGGRAPGESTYANLPIADFGETTTRYHLDMDVEDRVGVLAELASLFSEQGISLRTIRQEERDDDARLIVVTHSALESDLSRTVELLKAKPVVKAINSVIRLERD",inhibition of the activity was reduced
2,"G378S: Hom (SEQ ID NO: 13), glycine at position 378 mutated to serine (protein, Hom (KFCC10881-22)) MTSASAPSFNPGKGPGSAVGIALLGFGTVGTEVMRLMTEYGDELAHRIGGPLEVRGIAVSDISKPREGVAPELLTEDAFALIEREDVDIVVEVIGGIEYPREVVLAALKAGKSVVTANKALVAAHSAELADAAEAANVDLYFEAAVAGAIPVVGPLRRSLAGDQIQSVMGIVNGTTNFILDAMDSTGADYADSLAEATRLGYAEADPTADVEGHDAASKAAILASIAFHTRVTADDVYCEGISNISAADIEAAQQAGHTIKLLAICEKFTNKEGKSAISARVHPTLLPVSHPLASVNKSFNAIFVEAEAAGRLMFYGNGAGGAPTASAVLGDVVGAARNKVHGGRAPGESTYANLPIADFGETTTRYHLDMDVEDRVSVLAELASLFSEQGISLRTIRQEERDDDARLIVVTHSALESDLSRTVELLKAKPVVKAINSVIRLERD",inhibition of the activity was reduced
3,"G378W: Hom (SEQ ID NO: 12), glycine at position 378 mutated to tryptophan (protein, Hom (KFCC10881-19)) MTSASAPSFNPGKGPGSAVGIALLGFGTVGTEVMRLMTEYGDELAHRIGGPLEVRGIAVSDISKPREGVAPELLTEDAFALIEREDVDIVVEVIGGIEYPREVVLAALKAGKSVVTANKALVAAHSAELADAAEAANVDLYFEAAVAGAIPVVGPLRRSLAGDQIQSVMGIVNGTTNFILDAMDSTGADYADSLAEATRLGYAEADPTADVEGHDAASKAAILASIAFHTRVTADDVYCEGISNISAADIEAAQQAGHTIKLLAICEKFTNKEGKSAISARVHPTLLPVSHPLASVNKSFNAIFVEAEAAGRLMFYGNGAGGAPTASAVLGDVVGAARNKVHGGRAPGESTYANLPIADFGETTTRYHLDMDVEDRVWVLAELASLFSEQGISLRTIRQEERDDDARLIVVTHSALESDLSRTVELLKAKPVVKAINSVIRLERD",inhibition of the activity was reduced
4,"R398Q: Hom (SEQ ID NO: 11), arginine at position 398 mutated to glutamine (protein, Hom (KFCC10881-14)) MTSASAPSFNPGKGPGSAVGIALLGFGTVGTEVMRLMTEYGDELAHRIGGPLEVRGIAVSDISKPREGVAPELLTEDAFALIEREDVDIVVEVIGGIEYPREVVLAALKAGKSVVTANKALVAAHSAELADAAEAANVDLYFEAAVAGAIPVVGPLRRSLAGDQIQSVMGIVNGTTNFILDAMDSTGADYADSLAEATRLGYAEADPTADVEGHDAASKAAILASIAFHTRVTADDVYCEGISNISAADIEAAQQAGHTIKLLAICEKFTNKEGKSAISARVHPTLLPVSHPLASVNKSFNAIFVEAEAAGRLMFYGNGAGGAPTASAVLGDVVGAARNKVHGGRAPGESTYANLPIADFGETTTRYHLDMDVEDRVGVLAELASLFSEQGISLRTIQQEERDDDARLIVVTHSALESDLSRTVELLKAKPVVKAINSVIRLERD",inhibition of the activity was reduced
